Test results as given in patent US20210253718A1 (MODMAB THERAPEUTICS, published 2021).

T1: FZD8 cysteine-rich domain (CRD), MYC-tagged and GPI-anchored on CHO cells (human, UniProt Q498S8 31-155 (rat entry), GPI anchor)
T1 construct: also called FZD8 CRD; CHO-myc-FZDGPI; not shown: MYC tag and GPI anchor signal
T1 sequence: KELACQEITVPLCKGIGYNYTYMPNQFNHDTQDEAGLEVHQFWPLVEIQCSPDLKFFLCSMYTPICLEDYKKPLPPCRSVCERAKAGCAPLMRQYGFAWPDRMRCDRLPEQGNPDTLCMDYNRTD

T2: FZD9 cysteine-rich domain (CRD), MYC-tagged and GPI-anchored on CHO cells (human, UniProt O00144 35-161, GPI anchor)
T2 construct: also called FZD9 CRD; CHO-myc-FZDGPI; not shown: MYC tag and GPI anchor signal
T2 sequence: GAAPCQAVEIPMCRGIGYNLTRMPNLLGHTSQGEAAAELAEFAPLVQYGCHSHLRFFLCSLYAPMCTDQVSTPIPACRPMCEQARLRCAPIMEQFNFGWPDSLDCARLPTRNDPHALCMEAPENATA

T3: FZD10 cysteine-rich domain (CRD), MYC-tagged and GPI-anchored on CHO cells (human, UniProt Q9ULW2 30-156, GPI anchor)
T3 construct: also called FZD10 CRD; CHO-myc-FZDGPI; not shown: MYC tag and GPI anchor signal
T3 sequence: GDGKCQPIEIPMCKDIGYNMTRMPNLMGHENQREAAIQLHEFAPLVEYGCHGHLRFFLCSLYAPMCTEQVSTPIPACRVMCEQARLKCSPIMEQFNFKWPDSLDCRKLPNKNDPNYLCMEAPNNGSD

T4: FZD3 cysteine-rich domain (CRD), MYC-tagged and GPI-anchored on CHO cells (human, UniProt Q9NPG1 24-150, GPI anchor)
T4 construct: domain: cysteine-rich domain (CRD); also called FZD3 CRD; CHO-myc-FZDGPI; not shown: MYC tag and GPI anchor signal
T4 sequence (looked up): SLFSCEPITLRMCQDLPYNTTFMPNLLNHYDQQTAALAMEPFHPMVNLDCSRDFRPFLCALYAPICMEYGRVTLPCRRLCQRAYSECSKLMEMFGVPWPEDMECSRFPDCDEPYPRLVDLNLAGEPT

T5: FZD5 cysteine-rich domain (CRD), MYC-tagged and GPI-anchored on CHO cells (human, UniProt Q13467 29-156, GPI anchor)
T5 construct: also called FZD5 CRD; CHO-myc-FZDGPI; not shown: MYC tag and GPI anchor signal
T5 sequence: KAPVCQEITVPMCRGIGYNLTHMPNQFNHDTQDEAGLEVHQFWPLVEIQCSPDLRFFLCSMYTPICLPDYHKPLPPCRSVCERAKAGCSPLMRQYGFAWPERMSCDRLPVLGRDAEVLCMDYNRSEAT

T6: FZD6 cysteine-rich domain (CRD), MYC-tagged and GPI-anchored on CHO cells (human, UniProt O60353 20-146, GPI anchor)
T6 construct: also called FZD6 CRD; CHO-myc-FZDGPI; not shown: MYC tag and GPI anchor signal
T6 sequence: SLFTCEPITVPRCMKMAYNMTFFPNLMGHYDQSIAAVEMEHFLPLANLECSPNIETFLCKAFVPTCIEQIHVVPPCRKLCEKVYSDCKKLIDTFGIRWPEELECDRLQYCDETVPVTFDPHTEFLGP

T7: FZD4 cysteine-rich domain (CRD), MYC-tagged and GPI-anchored on CHO cells (human, UniProt Q9ULV1 42-167, GPI anchor)
T7 construct: also called FZD4 CRD; CHO-myc-FZDGPI; not shown: MYC tag and GPI anchor signal
T7 sequence: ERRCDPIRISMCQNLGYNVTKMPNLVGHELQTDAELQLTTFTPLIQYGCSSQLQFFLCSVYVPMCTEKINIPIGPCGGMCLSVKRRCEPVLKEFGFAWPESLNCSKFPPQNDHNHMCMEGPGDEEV


Experiments:
[1] = molecular target: T1, FZD8 cysteine-rich domain (CRD), …; test: flow cytometry, CHO-CRD cells;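 note: flow cytometry of Fab binding to CHO cells overexpressing a Frizzled CRD, with binding defined as median fluorescence over twice that of CHO cells lacking any Frizzled CRD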
Experimental: (§1) Binding was measured via flow cytometry analysis of CHO cells overexpressing CRD of FZD1, FZD2, FZD3, FZD4, FZD5, FZD6, FZD7, FZD8, FZD9 or FZD10. Median fluorescence values are shown.

[2] = molecular target: FZD1 cysteine-rich domain (CRD), MYC-tagged and GPI-anchored on CHO cells (human); test: flow cytometry, CHO-CRD cells;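 note: flow cytometry of Fab binding to CHO cells overexpressing a Frizzled CRD, with binding defined as median fluorescence over twice that of CHO cells lacking any Frizzled CRD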
Experimental: as §1

[3] = molecular target: FZD7 cysteine-rich domain (CRD), MYC-tagged and GPI-anchored on CHO cells (human, UniProt O75084 45-169); test: flow cytometry, CHO-CRD cells;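 note: flow cytometry of Fab binding to CHO cells overexpressing a Frizzled CRD, with binding defined as median fluorescence over twice that of CHO cells lacking any Frizzled CRD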
Experimental: as §1

[4] = molecular target: T2, FZD9 cysteine-rich domain (CRD), …; test: flow cytometry, CHO-CRD cells;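 note: flow cytometry of Fab binding to CHO cells overexpressing a Frizzled CRD, with binding defined as median fluorescence over twice that of CHO cells lacking any Frizzled CRD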
Experimental: as §1

[5] = molecular target: T3, FZD10 cysteine-rich domain (CRD), …; test: flow cytometry, CHO-CRD cells
Experimental: as §1

[6] = molecular target: T4, FZD3 cysteine-rich domain (CRD), …; test: flow cytometry, CHO-CRD cells
Experimental: as §1

[7] = molecular target: T5, FZD5 cysteine-rich domain (CRD), …; test: flow cytometry, CHO-CRD cells
Experimental: as §1

[8] = molecular target: T6, FZD6 cysteine-rich domain (CRD), …; test: flow cytometry, CHO-CRD cells
Experimental: as §1

[9] = molecular target: T2, FZD9 cysteine-rich domain (CRD), …; test: immunofluorescence, CHO-CRD cells
[10] = molecular target: T3, FZD10 cysteine-rich domain (CRD), …; test: immunofluorescence, CHO-CRD cells
[11] = molecular target: T4, FZD3 cysteine-rich domain (CRD), …; test: immunofluorescence, CHO-CRD cells
[12] = molecular target: T6, FZD6 cysteine-rich domain (CRD), …; test: immunofluorescence, CHO-CRD cells
[13] = molecular target: T7, FZD4 cysteine-rich domain (CRD), …; test: flow cytometry, CHO-CRD cells
Experimental: as §1

[14] = molecular target: T7, FZD4 cysteine-rich domain (CRD), …; test: immunofluorescence, CHO-CRD cells
[15] = molecular target: FZD2 cysteine-rich domain (CRD), MYC-tagged and GPI-anchored on CHO cells (human, UniProt Q14332 35-161); test: flow cytometry, CHO-CRD cells
Experimental: as §1

Binder	median fluorescence [1]	median fluorescence [2]	median fluorescence [3]	median fluorescence [4]	median fluorescence [5]	median fluorescence [6]	median fluorescence [7]	median fluorescence [8]	binding result [9]	binding result [10]	binding result [11]	binding result [12]	median fluorescence [13]	binding result [14]	median fluorescence [15]
Fab-2930 (Fab, V domains shown, Fab; also called Fv-2930) VH: EVQLVESGGGLVQPGGSLRLSCAASGFNLSYYYIHWVRQAPGKGLEWVASIYPYSGSTSYADSVKGRFTISADTSKNTAYLQMNSLRAEDTAVYYCARGALDYWGQGTLVTVSS VL: DIQMTQSPSSLSASVGDRVTITCRASQSVSSAVAWYQQKPGKAPKLLIYSASSLYSGVPSRFSGSRSGTDFTLTISSLQPEDFATYYCQQWYGPYLITFGQGTKVEIK	13.8	30.1	22.2	4.87	4.37	6.26	33.1	3.79	no binding	no binding	no binding	no binding	–	–	–
Fab-2907 (Fab, V domains shown, Fab; also called Fv-2907) VH: EVQLVESGGGLVQPGGSLRLSCAASGFNIYSSYMHWVRQAPGKGLEWVASISSYSGSTYYADSVKGRFTISADTSKNTAYLQMNSLRAEDTAVYYCARSSWGAYIVSYGFDYWGQGTLVTVSS VL: DIQMTQSPSSLSASVGDRVTITCRASQSVSSAVAWYQQKPGKAPKLLIYSASSLYSGVPSRFSGSRSGTDFTLTISSLQPEDFATYYCQQVGYWWGLITFGQGTKVEIK	–	–	–	2.86	2.76	3.79	–	3.06	no binding	no binding	no binding	no binding	3.96	no binding	–
Fab-2899 (Fab, V domains shown, Fab; also called Fv-2899) VH: EVQLVESGGGLVQPGGSLRLSCAASGFNLYYYYMHWVRQAPGKGLEWVASIYPSSGSTSYADSVKGRFTISADTSKNTAYLQMNSLRAEDTAVYYCARGALDYWGQGTLVTVSS VL: DIQMTQSPSSLSASVGDRVTITCRASQSVSSAVAWYQQKPGKAPKLLIYSASSLYSGVPSRFSGSRSGTDFTLTISSLQPEDFATYYCQQWYSSYGLITFGQGTKVEIK	12.8	19.5	54.2	4.7	5	7.91	33.7	4.37	no binding	no binding	no binding	no binding	–	–	20.7
Fab-2912 (Fab, V domains shown, Fab; also called Fv-2912) VH: EVQLVESGGGLVQPGGSLRLSCAASGFNISYSYIHWVRQAPGKGLEWVASISSSSGYTSYADSVKGRFTISADTSKNTAYLQMNSLRAEDTAVYYCARTVRGSKKPYFSGWAMDYWGQGTLVTVSS VL: DIQMTQSPSSLSASVGDRVTITCRASQSVSSAVAWYQQKPGKAPKLLIYSASSLYSGVPSRFSGSRSGTDFTLTISSLQPEDFATYYCQQFYFPYLITFGQGTKVEIK	7.57	41	56.7	4.45	3.82	4.61	32.2	4.1	no binding	no binding	no binding	no binding	47	–	19.8
Fab-2925 (Fab, V domains shown, Fab; also called Fv-2925) VH: EVQLVESGGGLVQPGGSLRLSCAASGFNLSYSSMHWVRQAPGKGLEWVASIYPSYGSTYYADSVKGRFTISADTSKNTAYLQMNSLRAEDTAVYYCARYGYFGLDYWGQGTLVTVSS VL: DIQMTQSPSSLSASVGDRVTITCRASQSVSSAVAWYQQKPGKAPKLLIYSASSLYSGVPSRFSGSRSGTDFTLTISSLQPEDFATYYCQQAWVYASLFTFGQGTKVEIK	–	–	–	3.31	4.53	3.92	37.5	3.05	no binding	no binding	no binding	no binding	4.53	no binding	–
Fab-2933 (Fab, V domains shown, Fab; also called Fv-2933) VH: EVQLVESGGGLVQPGGSLRLSCAASGFNLYSSYMHWVRQAPGKGLEWVASIYSSYGYTSYADSVKGRFTISADTSKNTAYLQMNSLRAEDTAVYYCARTVRGSKKPYFSGWAMDYWGQGTLVTVSS VL: DIQMTQSPSSLSASVGDRVTITCRASQSVSSAVAWYQQKPGKAPKLLIYSASSLYSGVPSRFSGSRSGTDFTLTISSLQPEDFATYYCQQFWWYASWLFTFGQGTKVEIK	26.7	14.5	8.74	143	21.1	4.1	34.9	4.1	–	–	no binding	no binding	46.4	–	–
Fab-2904 (Fab, V domains shown, Fab; also called Fv-2904) VH: EVQLVESGGGLVQPGGSLRLSCAASGFNIYSYSMHWVRQAPGKGLEWVAYISSSYGYTSYADSVKGRFTISADTSKNTAYLQMNSLRAEDTAVYYCARSWYAWAMDYWGQGTLVTVSS VL: DIQMTQSPSSLSASVGDRVTITCRASQSVSSAVAWYQQKPGKAPKLLIYSASSLYSGVPSRFSGSRSGTDFTLTISSLQPEDFATYYCQQSSYSLITFGQGTKVEIK	10.1	15.5	42.9	3.37	3.43	4.14	29.7	3.59	no binding	no binding	no binding	no binding	–	–	12
